In this test the target is human GITR on cells (activated human T cells; 3A9-hGITR cells) (human) (UniProt Q9Y5U5). Kind of test: flow cytometry on anti-CD3/CD28-activated human CD4 T cells, GMFI (PE); fitted value of a flat control curve, unit from the axis.

Experimental findings from patent publication US20200268901A1 are described below.

The EC50 is the concentration that produces a half-maximal response.

Chain of human GITR on cells (activated human T cells; 3A9-hGITR cells) (human) (Q9Y5U5 26-241): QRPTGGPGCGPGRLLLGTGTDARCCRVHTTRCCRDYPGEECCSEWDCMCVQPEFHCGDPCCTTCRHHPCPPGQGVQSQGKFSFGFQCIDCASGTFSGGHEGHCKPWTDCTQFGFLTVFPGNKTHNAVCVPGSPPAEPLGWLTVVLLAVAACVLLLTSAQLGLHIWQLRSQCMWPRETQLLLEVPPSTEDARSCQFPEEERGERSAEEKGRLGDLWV

Substance hIgG1 Isotype Control (antibody) came in with an EC50 of 132 nM.
